In ChEMBL document CHEMBL3526122, “Identification of UDP-glucuronosyltransferases responsible for the glucuronidation of darexaban, an oral factor Xa inhibitor, in human liver and intestine” (Drug Metab Dispos, 2012):

Key:
[1] = Drug level in human intestinal microsomes treated with darexaban at 30 uM after 10 mins by LC-MS/MS analysis in presence of UDPGA; assay type: ADME, Intestine, Microsome
Liver microsome = assay: Drug level in human liver microsomes treated with darexaban at 30 uM after 10 mins by LC-MS/MS analysis in presence of UDPGA; assay type: ADME
[2] = substrate: COc1ccc(C(=O)Nc2cccc(O)c2NC(=O)c2ccc(N3CCCN(C)CC3)cc2)cc1; assay: Activity of human recombinant UGT1A10 expressed in baculovirus-infected insect cells assessed as enzyme-mediated glucuronidation after 10 mins in presence of UDPGA; assay type: ADME
[3] = substrate: COc1ccc(C(=O)Nc2cccc(O)c2NC(=O)c2ccc(N3CCCN(C)CC3)cc2)cc1; assay: Activity of human recombinant UGT1A8 expressed in baculovirus-infected insect cells assessed as enzyme-mediated glucuronidation after 10 mins in presence of UDPGA; assay type: ADME
[4] = substrate: COc1ccc(C(=O)Nc2cccc(O)c2NC(=O)c2ccc(N3CCCN(C)CC3)cc2)cc1; assay: Activity of human recombinant UGT1A9 expressed in baculovirus-infected insect cells assessed as enzyme-mediated glucuronidation after 5 mins by Michaelis-Menten plot analysis in presence of UDPGA and 2% fatty acid free BSA; assay type: ADME
[5] = substrate: COc1ccc(C(=O)Nc2cccc(O)c2NC(=O)c2ccc(N3CCCN(C)CC3)cc2)cc1; assay: Activity of human recombinant UGT1A9 expressed in baculovirus-infected insect cells assessed as enzyme-mediated glucuronidation after 5 mins by Michaelis-Menten plot analysis in presence of UDPGA and 0.5% fatty acid free BSA; assay type: ADME
[6] = substrate: COc1ccc(C(=O)Nc2cccc(O)c2NC(=O)c2ccc(N3CCCN(C)CC3)cc2)cc1; assay: Activity of human recombinant UGT1A9 expressed in baculovirus-infected insect cells assessed as enzyme-mediated glucuronidation after 5 mins by Michaelis-Menten plot analysis in presence of UDPGA and absence of fatty acid free BSA; assay type: ADME
[7] = substrate: COc1ccc(C(=O)Nc2cccc(O)c2NC(=O)c2ccc(N3CCCN(C)CC3)cc2)cc1; assay: Activity of human recombinant UGT1A9 expressed in baculovirus-infected insect cells assessed as enzyme-mediated glucuronidation after 5 mins by Michaelis-Menten plot analysis in presence of UDPGA; assay type: ADME
[8] = substrate: COc1ccc(C(=O)Nc2cccc(O)c2NC(=O)c2ccc(N3CCCN(C)CC3)cc2)cc1; assay: Activity of human recombinant UGT1A9 expressed in baculovirus-infected insect cells assessed as enzyme-mediated glucuronidation after 5 mins by Michaelis-Menten plot analysis in presence of UDPGA and 0.1% fatty acid free BSA; assay type: ADME
[9] = substrate: COc1ccc(C(=O)Nc2cccc(O)c2NC(=O)c2ccc(N3CCCN(C)CC3)cc2)cc1; assay: Activity of human recombinant UGT1A7 expressed in baculovirus-infected insect cells assessed as enzyme-mediated glucuronidation after 10 mins by Michaelis-Menten plot analysis in presence of UDPGA; assay type: ADME

In the case of `COc1ccc(C(=O)Nc2cccc(O[C@@H]3O[C@H](C(=O)O)[C@@H](O)[C@H](O)[C@H]3O)c2NC(=O)c2ccc(N3CCCN(C)CC3)cc2)cc1`, the Drug metabolism [1] is reported as “metabolite_detected” and the Drug metabolism (Liver microsome) is reported as “metabolite_detected”.

B1: UDP-glucuronosyltransferase 1A10 (Homo sapiens) (protein)
chain: MARAGWTSPVPLCVCLLLTCGFAEAGKLLVVPMDGSHWFTMQSVVEKLILRGHEVVVVMPEVSWQLERSLNCTVKTYSTSYTLEDQNREFMVFAHAQWKAQAQSIFSLLMSSSSGFLDLFFSHCRSLFNDRKLVEYLKESSFDAVFLDPFDTCGLIVAKYFSLPSVVFTRGIFCHHLEEGAQCPAPLSYVPNDLLGFSDAMTFKERVWNHIVHLEDHLFCQYLFRNALEIASEILQTPVTAYDLYSHTSIWLLRTDFVLDYPKPVMPNMIFIGGINCHQGKPLPMEFEAYINASGEHGIVVFSLGSMVSEIPEKKAMAIADALGKIPQTVLWRYTGTRPSNLANNTILVKWLPQNDLLGHPMTRAFITHAGSHGVYESICNGVPMVMMPLFGDQMDNAKRMETKGAGVTLNVLEMTSEDLENALKAVINDKSYKENIMRLSSLHKDRPVEPLDLAVFWVEFVMRHKGAPHLRPAAHDLTWYQYHSLDVIGFLLAVVLTVAFITFKCCAYGYRKCLGKKGRVKKAHKSKTH
In the case of B1, the Km [2] is reported as 34.2 µM and the Vmax [2] is reported as 0.00136 µmol/min.

B2: UDP-glucuronosyltransferase 1A8 (Homo sapiens) (protein)
chain: MARTGWTSPIPLCVSLLLTCGFAEAGKLLVVPMDGSHWFTMQSVVEKLILRGHEVVVVMPEVSWQLGKSLNCTVKTYSTSYTLEDLDREFMDFADAQWKAQVRSLFSLFLSSSNGFFNLFFSHCRSLFNDRKLVEYLKESSFDAVFLDPFDACGLIVAKYFSLPSVVFARGIACHYLEEGAQCPAPLSYVPRILLGFSDAMTFKERVRNHIMHLEEHLFCQYFSKNALEIASEILQTPVTAYDLYSHTSIWLLRTDFVLDYPKPVMPNMIFIGGINCHQGKPLPMEFEAYINASGEHGIVVFSLGSMVSEIPEKKAMAIADALGKIPQTVLWRYTGTRPSNLANNTILVKWLPQNDLLGHPMTRAFITHAGSHGVYESICNGVPMVMMPLFGDQMDNAKRMETKGAGVTLNVLEMTSEDLENALKAVINDKSYKENIMRLSSLHKDRPVEPLDLAVFWVEFVMRHKGAPHLRPAAHDLTWYQYHSLDVIGFLLAVVLTVAFITFKCCAYGYRKCLGKKGRVKKAHKSKTH
Work on B2 yielded a Km [3] of 11.8 µM and a Vmax [3] of 0.000608 µmol/min.

B3: UDP-glucuronosyltransferase 1A9 (Homo sapiens) (protein)
chain: MACTGWTSPLPLCVCLLLTCGFAEAGKLLVVPMDGSHWFTMRSVVEKLILRGHEVVVVMPEVSWQLGRSLNCTVKTYSTSYTLEDLDREFKAFAHAQWKAQVRSIYSLLMGSYNDIFDLFFSNCRSLFKDKKLVEYLKESSFDAVFLDPFDNCGLIVAKYFSLPSVVFARGILCHYLEEGAQCPAPLSYVPRILLGFSDAMTFKERVRNHIMHLEEHLLCHRFFKNALEIASEILQTPVTEYDLYSHTSIWLLRTDFVLDYPKPVMPNMIFIGGINCHQGKPLPMEFEAYINASGEHGIVVFSLGSMVSEIPEKKAMAIADALGKIPQTVLWRYTGTRPSNLANNTILVKWLPQNDLLGHPMTRAFITHAGSHGVYESICNGVPMVMMPLFGDQMDNAKRMETKGAGVTLNVLEMTSEDLENALKAVINDKSYKENIMRLSSLHKDRPVEPLDLAVFWVEFVMRHKGAPHLRPAAHDLTWYQYHSLDVIGFLLAVVLTVAFITFKCCAYGYRKCLGKKGRVKKAHKSKTH
With B3 the Km [4] was 18.3 µM, the Km [5] was 22.7 µM and the Km [6] was 35.5 µM. For the same molecule, the Km [7] was 58.2 µM and the Km [8] was 22.4 µM.

B4: UDP-glucuronosyltransferase 1A7 (Homo sapiens) (protein)
chain: MARAGWTGLLPLYVCLLLTCGFAKAGKLLVVPMDGSHWFTMQSVVEKLILRGHEVVVVMPEVSWQLGRSLNCTVKTYSTSYTLEDQDREFMVFADARWTAPLRSAFSLLTSSSNGIFDLFFSNCRSLFNDRKLVEYLKESCFDAVFLDPFDACGLIVAKYFSLPSVVFARGIFCHYLEEGAQCPAPLSYVPRLLLGFSDAMTFKERVWNHIMHLEEHLFCPYFFKNVLEIASEILQTPVTAYDLYSHTSIWLLRTDFVLEYPKPVMPNMIFIGGINCHQGKPVPMEFEAYINASGEHGIVVFSLGSMVSEIPEKKAMAIADALGKIPQTVLWRYTGTRPSNLANNTILVKWLPQNDLLGHPMTRAFITHAGSHGVYESICNGVPMVMMPLFGDQMDNAKRMETKGAGVTLNVLEMTSEDLENALKAVINDKSYKENIMRLSSLHKDRPVEPLDLAVFWVEFVMRHKGAPHLRPAAHDLTWYQYHSLDVIGFLLAVVLTVAFITFKCCAYGYRKCLGKKGRVKKAHKSKTH
B4 gave a Km [9] of 59.1 µM and a Vmax [9] of 0.000725 µmol/min.
